This data set is described as follows: protein stability index of a GFP-peptide fusion (GPS, HEK-293T) (PSI 1-6); higher = more stable.
[1] abbreviates: treatment: DMSO, c terminus: a fixed tail appended.
The mark [2] stands for this setting: treatment: MLN4924 1 uM, 8 h, c terminus: a fixed tail appended.

± gives the standard deviation.
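Note: 24-mer peptide tiles fused after GFP, lentivirally expressed, FACS-sorted into six equal bins by GFP/DsRed ratio, decoded by Illumina sequencing, PSI is the read-weighted mean bin number.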

Regarding IGALTYFAQADALKGTLVSTLKEV [ACSBG2], the protein stability index was determined as 2.21 ± 0.41 under setting [1] and 2.25 ± 0.56 under setting [2].

With AFGKICHMVSDGSWVVRVQAAKLL [INTS4], the protein stability index came out at 2.74 ± 0.49 under setting [1] and 2.88 ± 0.58 under setting [2].

DHTSEAVRNLFGLDPSSGAIHVLG [PCDHGC5]: the protein stability index is, setting by setting: under setting [1], 3.16 ± 0.24; under setting [2], 3.09 ± 0.19.

VRAWDLETGKLLWKVRYDTFIVSC [WDR88]: the protein stability index stood at 2.67 ± 0.069 under setting [1] and 2.11 ± 0.48 under setting [2].

For ALRVQQLVAKELGQTGTRLTPADK [AUP1], the protein stability index turned out to be 4.04 ± 0.18 under setting [1] and 4.16 ± 0.14 under setting [2].

Consider AQHKDRSTQLEMQLEKPKPVKPVT [MNAT1], for which the protein stability index by setting is: under setting [1], 4.71 ± 0.24; under setting [2], 4.82 ± 0.36.

Turning to IEENITSAAPSNDQDGEYCPEVKL [SRPK2], the protein stability index is, setting by setting: under setting [1], 5.5 ± 0.17; under setting [2], 5.49 ± 0.28.

On to GPMEEVERQVLPDPEVLEAVGDRQ [PBXIP1], for which the protein stability index under setting [1] came to 5.62 ± 0.25 and the protein stability index under setting [2] is 5.59 ± 0.21.

Take EDSDVEMVEDDSRKEMTAACTPRR [MLH1]: the protein stability index under setting [1] worked out at 5.54 ± 0.3 and the protein stability index under setting [2] was found to be 5.67 ± 0.18.

For DEDSEPEREVRAKNGRVDSEDRRS [USP39], the protein stability index is, setting by setting: under setting [1], 5.62 ± 0.33; under setting [2], 5.517 ± 0.016.

As for ALRAAEVWMDDFKSHVYMAWNIPM [GALNT9], the protein stability index reads like this: under setting [1], 2.35 ± 0.8; under setting [2], 2.24 ± 0.71.

As to VFRIFKLSRHSKGLQILGHTLRAS [KCNA4], the protein stability index by setting is: under setting [1], 2.39 ± 1; under setting [2], 2.6 ± 0.68.

For the sequence KSAILVPSEKKVAIIRTPPKSPAT [MAP2], the protein stability index under setting [1] stood at 4.32 ± 0.14 and the protein stability index under setting [2] was found to be 4.41 ± 0.1.

Regarding SINVMKQLIGSSNLFVMQVEMDIY [GMCL1], the protein stability index amounted to 2.98 ± 0.49 under setting [1] and 2.82 ± 0.73 under setting [2].

For the sequence ERTGFSIRPVAGYLSPRDFLSGLA [TPH1], the protein stability index was 2.25 ± 0.048 under setting [1] and 2.36 ± 0.35 under setting [2].

Regarding DEGDEPMPIPEDLSTTSGGQQSSK [IKZF1], the protein stability index by setting is: under setting [1], 5.42 ± 0.65; under setting [2], 5.56 ± 0.28.

Take GLPGPEAARSGDAAANKLFHYIPG [PLEKHN1]: the protein stability index is, setting by setting: under setting [1], 3.93 ± 0.38; under setting [2], 4.15 ± 0.42.

With LASYLEKVRQLERDNAELEKLIQE [KRT34], the protein stability index worked out at 3.33 ± 0.22 under setting [1] and 3.5 ± 0.24 under setting [2].

For the sequence LVSPERAQPPDYTFPSGSGAHFPQ [PI4K2A], the protein stability index amounted to 3.96 ± 0.3 under setting [1] and 4.13 ± 0.25 under setting [2].

Turning to RFYFENLLAKNSKPIHTTILNPHV [CAMK2B], the protein stability index runs as follows: under setting [1], 2.2 ± 0.11; under setting [2], 2.23 ± 0.23.

Consider CELAQDKEAAEAIEAEGATAPLTE [CTNNB1], for which the protein stability index is, setting by setting: under setting [1], 5.49 ± 0.41; under setting [2], 5.53 ± 0.23.

Consider HLPADSEVTLEANPTSAPGSRLAE [RSAD1], for which the protein stability index came out at 5.49 ± 0.077 under setting [1] and 5.39 ± 0.24 under setting [2].

Take TTVGYGDMKPITVGGKIVGSLCAI [KCNA4]: the protein stability index reads like this: under setting [1], 2.23 ± 0.47; under setting [2], 2.4 ± 0.27.

Regarding DVAGNLDYKALSYVITHGEEKEE [MYL5], the protein stability index came to 2.62 ± 0.7 (treatment: DMSO, c terminus: native) and 3.56 ± 1.1 (treatment: MLN4924 1 uM, 8 h, c terminus: native).

For the sequence EAAPRQCIELYFDEKYSIEPSWEC [NETO1], the protein stability index reads like this: under setting [1], 2.48 ± 0.2; under setting [2], 2.73 ± 0.57.

Regarding YNDVMQENYETVISLALFVLPKPK [ZNF75A], the protein stability index by setting is: under setting [1], 2.82 ± 0.64; under setting [2], 2.71 ± 0.84.

Consider MYDEKAHEWKSLAPMDAPRYQHGI [KLHL13], for which the protein stability index under setting [1] stood at 3.15 ± 0.21 and the protein stability index under setting [2] was 3.4 ± 0.17.

Consider SGGGGGGGGGGGGGKSGGIVISPF [CCDC6], for which the protein stability index is, setting by setting: under setting [1], 3.53 ± 0.41; under setting [2], 3.37 ± 0.23.

QRVPKVLVENAKNFPQCVLEISDQ [EFHC1]: the protein stability index by setting is: under setting [1], 3.49 ± 0.19; under setting [2], 3.81 ± 0.29.

Consider EPEMAVFLQNAKTLLKKISEASKA [TRIM55], for which the protein stability index reads like this: under setting [1], 2.46 ± 0.3; under setting [2], 2.25 ± 0.22.

In the case of HQRTHSEEETYKCLECGKSFCHGS [ZNF449], the protein stability index by setting is: under setting [1], 4.63 ± 0.3; under setting [2], 4.59 ± 0.3.

Take PSVMDPGAFETVLASAYTGRLSMA [ZBTB22]: the protein stability index runs as follows: under setting [1], 2.3 ± 0.38; under setting [2], 2.3 ± 0.17.

Take LWARGTWTQATGLGCALLAAHAVV [SOAT2]: the protein stability index reads like this: under setting [1], 3.01 ± 0.11; under setting [2], 3.2 ± 1.6.

In turn, KKSSRNIFSIVFVFFVCFVPYHIA [P2RY14] displayed a protein stability index under setting [1] of 3.31 ± 1 and a protein stability index under setting [2] of 3.53 ± 0.15.

Consider LESEGSPETLTNLRKGYLFMYNLV [HACD3], for which the protein stability index runs as follows: under setting [1], 2.02 ± 0.2; under setting [2], 1.97 ± 0.27.

As to LMAPTCVFLASKVEEFGVVSNTRL [CCNC], the protein stability index by setting is: under setting [1], 2.2 ± 0.34; under setting [2], 2.21 ± 0.14.

For the sequence AQRPGITHGVGLVLRVEQQPHLPL [SCNN1D], the protein stability index under setting [1] was determined as 2.59 ± 0.17 and the protein stability index under setting [2] was 2.85 ± 0.15.

As to HLRPELRSQMQGPRTRARLGANEV [KLHL12], the protein stability index under setting [1] turned out to be 4.23 ± 0.043 and the protein stability index under setting [2] was determined as 4.22 ± 0.44.

As for RQEYQKALQEYSSISEKLSSTNFA [C8orf76], the protein stability index came to 3.48 ± 0.26 under setting [1] and 3.69 ± 0.18 under setting [2].

In the case of NQKCQLRLLKTLETSRSHDLEAVV [ATP23], the protein stability index reads like this: under setting [1], 3.14 ± 0.12; under setting [2], 3.3 ± 0.2.

In the case of IIDYLEQTFLDERTPRLMPDKESM [GDAP1], the protein stability index was found to be 2.6 ± 0.27 under setting [1] and 2.82 ± 0.28 under setting [2].

As to QAVVLCSKKTFQITKQGDGVDFLS [USP39], the protein stability index is, setting by setting: under setting [1], 2.57 ± 0.18; under setting [2], 2.77 ± 0.38.

In the case of PVQPGMLIDVCKYLGSLQYRVWKK [TRIM35], the protein stability index under setting [1] was found to be 2 ± 0.2 and the protein stability index under setting [2] was 2.17 ± 0.29.

Turning to KKQTKVEFPEARIFEETLNILIYE [KCTD13], the protein stability index amounted to 2.16 ± 0.2 under setting [1] and 2.44 ± 0.5 under setting [2].

As for YLLTVMAAAAKAFKHPSIRNPVSL [ADAMTS4], the protein stability index is, setting by setting: under setting [1], 2.56 ± 0.62; under setting [2], 2.15 ± 0.32.

On to YLLALTIIVSIVHSVFEFLAFKND [CLPTM1], for which the protein stability index runs as follows: under setting [1], 2.985 ± 0.024; under setting [2], 2.85 ± 0.5.

ISLHPFNPWNWGKLAEAYLNLGPA [C8orf76]: the protein stability index is, setting by setting: under setting [1], 2.23 ± 1.1; under setting [2], 2.18 ± 0.77.

RANPCLSSSNEHAAPAAKTRKQAA [ELOA2] returned a protein stability index under setting [1] of 5.08 ± 0.16 and a protein stability index under setting [2] of 5.18 ± 0.26.

SWVSELLWSLFVPFTVYQVRWLRP [AUP1]: the protein stability index was 3.12 ± 0.27 under setting [1] and 2.81 ± 0.51 under setting [2].

Turning to MLVDGIDPNFKMEHQNKRSPLHAA [EHMT1], the protein stability index is, setting by setting: under setting [1], 3.41 ± 0.39; under setting [2], 3.67 ± 0.31.

For EANNLAAAASAKDIYYNNMEEVCG [ATL3], the protein stability index under setting [1] was 4.69 ± 0.26 and the protein stability index under setting [2] amounted to 4.68 ± 0.18.

Turning to SYLSLTSEDNTSFDRKKKSISLMY [SLA], the protein stability index was 2.94 ± 0.18 under setting [1] and 2.95 ± 0.25 under setting [2].

Regarding GKKYNTMLGYKRHLALHAASSGDL [PLAGL1], the protein stability index is, setting by setting: under setting [1], 3.15 ± 0.12; under setting [2], 3.28 ± 0.27.

For GGCYFGPDVTQQLLQKYNMQFLIR [PPEF2], the protein stability index runs as follows: under setting [1], 1.92 ± 0.29; under setting [2], 2.2 ± 0.37.

GLTFQGLLPLTELSVCPLEGSREH [PLEKHN1] had a protein stability index under setting [1] of 3.57 ± 0.35 and a protein stability index under setting [2] of 3.62 ± 0.35.

Take VFNLFRTMGLRHLPVVNAVGEIVG [CLCN6]: the protein stability index worked out at 2.45 ± 0.21 under setting [1] and 2.29 ± 0.18 under setting [2].

FFIGFTALVIMWQKHYVYGPLPQS [COX4I1]: the protein stability index worked out at 3.22 ± 0.34 under setting [1] and 3.36 ± 0.57 under setting [2].

For the sequence SSGHQNRRFSSEDLEDPLGGLLSY [FBF1], the protein stability index stood at 3.6 ± 0.48 under setting [1] and 3.89 ± 0.36 under setting [2].

In the case of SVLMGHGVCMGLVAAACACGFTVA [OR10K2], the protein stability index by setting is: under setting [1], 2.9 ± 0.45; under setting [2], 3.08 ± 0.41.

Sequence YSSRTPGTPGTPSYPRTPHTPGTP [MAP2] yielded a protein stability index under setting [1] of 4.25 ± 0.26 and a protein stability index under setting [2] of 4.27 ± 0.2.

EIIRKQVSATKAEAEKDGVKVPTT [UBE2R2]: the protein stability index was 4.84 ± 0.37 under setting [1] and 4.7 ± 0.25 under setting [2].

Turning to DNPSVLSGPMQAALQAAAHASVDI [SMG5], the protein stability index is, setting by setting: under setting [1], 4.05 ± 0.14; under setting [2], 4.29 ± 0.26.

Consider CWNTSYCSIKCQQEHWHAEHKRTC [ZMYND11], for which the protein stability index came to 2.31 ± 0.39 under setting [1] and 2.32 ± 0.22 under setting [2].

With KYKVHGKEILRTLQDVFCWLPLAT [PPEF2], the protein stability index under setting [1] turned out to be 3.08 ± 0.62 and the protein stability index under setting [2] turned out to be 3.3 ± 1.7.

For QFGLLSFFFAVLHAIYSLSYPMRR [STEAP1], the protein stability index reads like this: under setting [1], 3.28 ± 1; under setting [2], 2.058 ± 0.016.

Sequence GRGGEPRAYFMSDTREEKRFLGEG [CHGB] had a protein stability index under setting [1] of 4.23 ± 0.2 and a protein stability index under setting [2] of 4.44 ± 0.27.

On to MATESVDHELGRCTDSVVKYELMR [EHMT1], for which the protein stability index is, setting by setting: under setting [1], 3.65 ± 0.29; under setting [2], 3.69 ± 0.19.

For RMYCSDLLNPNLKDTVICAMKITQ [SPACA3], the protein stability index reads like this: under setting [1], 2.15 ± 0.42; under setting [2], 2.05 ± 0.17.

With DSCVLTGPDDSLWDKHACPAYVGP [TRIB3], the protein stability index was 3.65 ± 0.33 under setting [1] and 3.62 ± 0.19 under setting [2].

Turning to MDDPKGDFITLYQMASQSSASHYK [M1AP], the protein stability index was found to be 3.27 ± 0.25 under setting [1] and 3.31 ± 0.22 under setting [2].

Take EVQKLVESGVDVNSQNEVNGWTCL [ANKRD40]: the protein stability index reads like this: under setting [1], 3.43 ± 0.53; under setting [2], 3.33 ± 0.16.

Turning to FVRGDHRDNSPFDGPGGNLAHAFQ [MMP1], the protein stability index is, setting by setting: under setting [1], 2.34 ± 0.6; under setting [2], 3.06 ± 0.29.

These data come from the supplement of paper PMC10567573.
